Tests used:
[1] = test system: trypsin; experiment: Phage TRF binding assay on immobilised biotinylated trypsin (monoclonal phage ELISA); details: EETI-II in 5-3 frame, value in brackets after clone name
Experimental: Phage display technology facilitates isolation of binders to any given target from large combinatorial repertoires based on proteins and peptides that can be presented on the surface of filamentous phage^105. In order to isolate functional knottin-antibody fusions from the KnotBody libraries multiple rounds of phage display selections on trypsin (cognate antigen for the EETI-II donor) were carried out. Phage particles were prepared by rescuing KnotBody libraries using trypsin cleavable helper phage ^102,106Two rounds of phage display selections were performed on 10 µg/ml biotinylated trypsin immobilised on Streptavidin (for Round-1) or Neutravidin (for round-2) coated Maxisorp™ immunotubes (Thermo Scientific, Cat No. 444202). In both rounds of selection, phage libraries were pre-incubated with streptavidin coated paramagnetic beads (Thermo Fisher Scientific, Cat. No. 11205D). These beads were removed prior to the addition the phage to the antigen tubes to limit the streptavidin binders entering the selection. Polyclonal phage preparations from round-2 selection outputs were analysed for trypsin binding using a time resolved fluorescence (TRF) binding assay. In this assay, polyclonal phage binding to biotinylated trypsin immobilised on neutravidin (Thermo Fisher Scientific, Cat. No 31000) coated Maxisorp™ plates (Thermo Scientific, Cat. No. 437111) was detected using a mouse anti-M13 antibody (GE Healthcare, Cat. No. 27-9420-01) followed by europium conjugated anti-mouse antibody (Perkin Elmer, Cat. No. AD0124).
In order to identify monoclonal KnotBodies with desired binding characteristics, 94 individual clones derived from 2 rounds of selection using EETI-II CDR1 or CDR2 libraries were picked into 96 well culture plates and phage were prepared from each clone. Methods for screening by monoclonal phage ELISA are known in the art^107. […] Clones with >3x binding signal above background were picked as positive clones and sequenced to identify unique clones. 14 and 42 unique binders were identified from EETI-II CDR1 and EETI-II CDR2 libraries respectively (Table 1). 18 binders from the EETI-II CDR2 library and 3 binders from the EETI-II-CDR1 library were chosen for further characterisation based on their VL and linker sequence diversity. These binders were assigned new clone identification numbers (Table 2).
The trypsin binding capability of EETI-II is attributed to proline (Pro3) and arginine (Arg4) residues present in its loop1 (GCPRILMRC; SEQ ID NO: 68). […] Monoclonal phage was prepared from the 21 selected clones and their mutant equivalents. […] Replacement of the trypsin-binding residues of EETI-II abolished the ability of all KnotBody clones to bind to trypsin (Table 3). In order to confirm that the loss of trypsin binding was not due to reduced expression or display of pIII fusion phage was prepared from 11 (randomly chosen) KnotBodies and their GlyAla variants were analysed on a western blot using an antibody which recognises the product of gene 3 (pIII) using an anti-pIII antibody (MoBiTec GmbH) (FIG. 6).
Bovine antibodies have been described with natural ultra-long VH CDR3s containing a solvent exposed double stranded antiparallel sheet approximately 20 A° in length (referred to as the stalk) presenting a folded domain stabilised by 3 disulfide bonds (referred to as the Knob)^10. Zhang and colleagues have shown that the Knob domains of these cow ultra-long VH CDR3 antibodies (ULVC-Ab) can be replaced with other folded proteins such as erythropoietin^13. In this example, we assess the ability of a cow ULVC-Ab to present functional knottin fusions on phage in comparison with a KnotBody. In order to create a Knottin-cow UCLA fusion, the sequence between the first and the last cysteines of the knob region of the Cow ULVC-Ab BLV1H12 was replaced with the sequence of the trypsin binding knottin; EETI-II (EETI-II cow ULVC-Ab). A gene fragment encoding this construct was synthesised (Integrated DNA technologies, Table 21). […]

[2] = biological target: T1, human Kv1.3 (huKv1.3) (Homo sapiens, UniProt P22001); experiment: QPatch automated patch-clamp, CHO cells stably expressing human Kv1.3 (Examples 19-21); assay type: cell-based; details: huKv1.3, four-point curves of FIG. 32, Table E19; read-out: IC50
T1 construct: host or cells: CHO
T1 sequence (P22001 whole entry): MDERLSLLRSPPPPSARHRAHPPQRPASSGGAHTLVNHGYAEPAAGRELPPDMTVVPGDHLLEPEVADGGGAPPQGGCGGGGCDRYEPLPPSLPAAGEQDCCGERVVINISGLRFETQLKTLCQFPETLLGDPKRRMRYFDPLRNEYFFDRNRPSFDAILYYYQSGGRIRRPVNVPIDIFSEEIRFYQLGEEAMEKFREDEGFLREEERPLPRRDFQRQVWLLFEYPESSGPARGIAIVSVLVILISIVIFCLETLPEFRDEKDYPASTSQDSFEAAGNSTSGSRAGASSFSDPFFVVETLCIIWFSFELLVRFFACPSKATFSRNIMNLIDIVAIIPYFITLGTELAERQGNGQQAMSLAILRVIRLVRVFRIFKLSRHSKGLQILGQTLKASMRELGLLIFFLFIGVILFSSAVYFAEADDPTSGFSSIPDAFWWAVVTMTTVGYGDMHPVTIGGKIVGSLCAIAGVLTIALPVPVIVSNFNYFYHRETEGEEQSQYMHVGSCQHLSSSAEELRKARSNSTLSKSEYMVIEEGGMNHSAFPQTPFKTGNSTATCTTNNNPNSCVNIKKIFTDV
Experimental: The effect of these KnotBodies on cells expressing human Kv1.3 (huKv1.3) channel was assessed using the QPatch automated patch-clamp platform (Sophion, Ballerup, Denmark). For the testing of Kv1.3 ion channel currents, CHO cells stably expressing human Kv1.3 (GenBank accession number NM_002232.2; cell line catalogue number CT6133, Charles River Discovery, Cleveland, USA) were subjected to a QPatch electrophysiology assay in the presence or absence of the KnotBody fusions or the antibody isotypes (negative controls). Internal and external physiological solutions were freshly prepared prior to the assay. The extracellular solution contained 145 mM NaCl, 4 mM KC1, 2 mM CaC12, 1 mM MgC12, 10 mM HEPES and 10 mM glucose; the pH was adjusted to 7.4 with NaOH; the osmolarity was ~ 305 mOsm/L. The intracellular solution contained: KF (120 mM), KC1 (20 mM), HEPES (10 mM) EGTA (10 mM); the pH was adjusted to 7.2 with KOH; osmolarity was ~ 300 mOsm/L.
(§1) A series of depolarising voltage (channel activating) pulses were used to monitor the channel currents upon adding control (extracellular solution) to define a control baseline of current activity. To these measured control currents four, ascending concentrations of KnotBodies (including KB_A12_ShK and KB_A12_KTX as previously described in Example 8) or parental antibody isotypes (control molecules) were applied to the external bathing solution. KnotBodies KB_A12 and KB_A07 (EETI-II fusions) were used as isotype controls for the testing. From a holding voltage of -80 mV a depolarising, activating voltage pulses of +30 mV were applied for 300 ms, every 10 seconds. The elicited, maximum outward current values measured during the activating step for each solution exchange period, averaged (n = 3 - 6 for each concentration applied) and plotted as concentration-response curves (see FIG. 32). From these concentration-response curves IC50 values were calculated.
For the testing of Kv1.1 and Kv1.3, CHO-S expressing huKv1.1 (described above) or CHO cells stably expressing huKv1.3 (Charles River Lab) were analysed using the QPatch electrophysiology assay in the presence or absence of the KnotBody fusions. Internal and external physiological solutions were freshly prepared prior to the assay. The extracellular solution contained 145 mM NaCl, 4 mM KC1, 2 mM CaC12, 1 mM MgC12, 10 mM HEPES and 10 mM glucose; the pH was adjusted to 7.4 with NaOH; the osmolarity was ~ 305 mOsm/L. The intracellular solution contained: KF (120 mM), KC1 (20 mM), HEPES (10 mM) EGTA (10 mM); the pH was adjusted to 7.2 with KOH; osmolarity was ~ 300 mOsm/L.
as §1, with “(including previously described” for “(including”, “KB_A12_KTX” for “KB_A12_KTX as previously”, “[…]” for “+30 mV”, “33).” for “32).”, “calculated (see Table E20).” for “calculated.”
For the testing of Kv1.1 and Kv1.3, CHO-S expressing huKv1.1 (see Example 20 and below) or CHO cells stably expressing huKv1.3 (Charles River Lab) were analysed using the QPatch electrophysiology assay in the presence or absence of the KnotBody fusions - see details in Examples 19 and 20.

B1: E03: KnotBody with alternative 5-3 framing of EETI-II, VL CDR2 (protein)
chain: QSVLTQPPSVSEAPRQRVTITCSGSSSNIGNNAVNWYQQLPGKAPKLLIYAAGGCGPNGFCGSGSDGGVCPRILMRCKQDSDCLAGCGRNSGIPERFSGSKSGHTATLTISRVEAGDEADYYCQVWDSSSDHVLFGGGTKLTVLGQP
modifications: E03 (82495)
notes: KnotBody with alternative 5-3 framing of EETI-II, VL CDR2
- ELISA signal from monoclonal phage ELISA [1]: E03 (82495)

B2: C09: KnotBody with alternative 5-3 framing of EETI-II, VL CDR1 (protein)
chain: QSVLTQPPSVSEAPRQRVTITCGGKRCGPNGFCGSGSDGGVCPRILMRCKQDSDCLAGCTSNWYQQKPGQAPVLVVQDDSVRPSGIPERFSGSNSGNTATLTISRVEAGDGADYYCQVWDISSDLGVFGGGTKLTVLGQP
modifications: C09 (9820)
notes: KnotBody with alternative 5-3 framing of EETI-II, VL CDR1
- ELISA signal from monoclonal phage ELISA [1]: C09 (9820)

B3: F07: KnotBody with alternative 5-3 framing of EETI-II, VL CDR2 (protein)
chain: QSVLTQPPSVSEAPRQRVTITCSGSSSNIGNNAVNWYQQLPGKAPKLLIYAAGGCGPNGFCGSGSDGGVCPRILMRCKQDSDCLAGCGGQSGVPDRFSGSKSGTSASLAISRLQSEDEADYYCAAWDDSLNAYVFGTGTKVTVLGQP
modifications: F07 (72824)
notes: as for B1
- ELISA signal from monoclonal phage ELISA [1]: F07 (72824)

B4: E09: KnotBody with alternative 5-3 framing of EETI-II, VL CDR2 (protein)
chain: QSVLTQPPSVSEAPRQRVTITCSGSSSNIGNNAVNWYQQLPGKAPKLLIYAAGGCGPNGFCGSGSDGGVCPRILMRCKQDSDCLAGCGTQSGIPERFSGSKSGTSASLAISGLRSEDEADYYCAAWDDSLRAYVFGTGTQLTVLGQP
modifications: E09 (70274)
notes: as for B1
- ELISA signal from monoclonal phage ELISA [1]: E09 (70274)

B5: E01: KnotBody with alternative 5-3 framing of EETI-II, VL CDR2 (protein)
chain: QSVLTQPPSVSEAPRQRVTITCSGSSSNIGNNAVNWYQQLPGKAPKLLIYAAGGCGPNGFCGSGSDGGVCPRILMRCKQDSDCLAGCGIHSGVSDRFSDSKSGTSASLAISGLQSEDEADYYCAAWDDSLNGYVFGTGTKLTVLGQP
modifications: E01 (127988)
notes: as for B1
- ELISA signal from monoclonal phage ELISA [1]: E01 (127988)

B6: E08: KnotBody with alternative 5-3 framing of EETI-II, VL CDR2 (protein)
chain: QSVLTQPPSVSEAPRQRVTITCSGSSSNIGNNAVNWYQQLPGKAPKLLIYAAGGCGPNGFCGSGSDGGVCPRILMRCKQDSDCLAGCGIQSGIPERFSGSKSGTSASLAISGLRSEDEADYYCAAWDDNLSGYVFGTGTKLTVLGQP
modifications: E08 (121047)
notes: as for B1
- ELISA signal from monoclonal phage ELISA [1]: E08 (121047)

B7: E05: KnotBody with alternative 5-3 framing of EETI-II, VL CDR2 (protein)
chain: QSVLTQPPSVSEAPRQRVTITCSGSSSNIGNNAVNWYQQLPGKAPKLLIYAAGGCGPNGFCGSGSDGGVCPRILMRCKQDSDCLAGCGAQSGIPERFSGSKSGTSASLAISGLQSEDEAHYYCAAWDDSLNGYVFGTGTKVTVLGQP
modifications: E05 (118631)
notes: as for B1
- ELISA signal from monoclonal phage ELISA [1]: E05 (118631)

B8: F03: KnotBody with alternative 5-3 framing of EETI-II, VL CDR2 (protein)
chain: QSVLTQPPSVSEAPRQRVTITCSGSSSNIGNNAVNWYQQLPGRAPKLLIYAAGGCGPNGFCGSGGDGGVCPRILMRCKQDSDCLAGCGAHSGIPERFSGSKSGTSASLAISGLRSEDEADYYCAAWDDSLNGWVFGGGTKVTVLGQP
modifications: F03 (67972)
notes: as for B1
- ELISA signal from monoclonal phage ELISA [1]: F03 (67972)

B9: KB_A07_HsTx1 (antibody, V domains shown)
VH: EVQLVESGGGLVRPGGSLRLSCAASGFTFSSYAMSWVRQAPGKGLEWVSAISGSGGSTYYADSVKGRFTISRDNTKNSLYLQMTSLRADDTAFYYCVKDFGPGYGTGWFDYWGPGTLVTVSS
VL: DIQMTQSPSSLSASVGDRVTITCRASQSISSYLNWYQQKPGKAPKLLIYAAGVASCRTPKDCADPCRKETGCPYGKCMNRKCKCNRCSRSGVPSRFSGSGSGTDFTLTISSLQPEDFATYYCQQGASPPYTFGQGTKVEIKR
- IC50 [2]: 4.7 nM

B10: KB_A12_ADWX1: ADWX-1 in VL CDR2 of KB_A12, IgG (antibody, V domains shown)
VH: EVQLVESGGGLVRPGGSLRLSCAASGFTFSSYAMSWVRQAPGKGLEWVSAISGSGGSTYYADSVKGRFTISRDNTKNSLYLQMTSLRADDTAFYYCVKDFGPGYGTGWFDYWGPGTLVTVSS
VL: QSVLTQPPSVSEAPRQRVTITCSGSSSNIGNNAVNWYQQLPGKAPKLLIYAAGRVGINVKCKHSRQCLKPCKDAGMRFGKCTNGKCHCTPKANSGVSDRFSAAKSGTSASLAINGLRSEDEADYYCAAWDDSLNGYVFGTGTKLTVLG
- IC50 [2]: 270 nM
